Where two headings read alike, the source gives them in different places.
Legend:
[1] = target: Tva fused with HA tag and the human IgG-Fc fragment (pCAGGS-Tva-HA-Fc)
[2] = target: Tva fused with HA tag and the human IgG-Fc fragment (pCAGGS-Tva-HA-Fc); test: co-IP with grey value analysis; conditions: parent: est. 1.0; read off a plot
[3] = target: Tva fused with HA tag and the human IgG-Fc fragment (pCAGGS-Tva-HA-Fc); remark: listed apart in the source
[4] = target: Tva fused with HA tag and the human IgG-Fc fragment (pCAGGS-Tva-HA-Fc); remark: listed apart in the source

ALV-A gp85 G324P (domain or fragment)
competitive blocking test: percent GFP-positive DF-1 cells after incubation with the concentrated soluble gp85 and infection with RCASBP(A)-EGFP [1]: 5.5%

ALV-A gp85 I326T (domain or fragment)
competitive blocking test: percent GFP-positive DF-1 cells after incubation with the concentrated soluble gp85 and infection with RCASBP(A)-EGFP [1]: 4.5%

ALV-A gp85 wt (soluble gp85 of ALV-A RSA, pCAGGS-s-gp85-flag) 328_329insP
ratio to parent [2]: 0.71

ALV-A gp85 wt (soluble gp85 of ALV-A RSA, pCAGGS-s-gp85-flag) A270del
ratio to parent [2]: 0.93

ALV-A gp85 wt (soluble gp85 of ALV-A RSA, pCAGGS-s-gp85-flag) N269del
ratio to parent [2]: 0.91

recombinant ALV-A gp85 R274V (domain or fragment)
competitive blocking test: percent GFP-positive DF-1 cells after incubation with the concentrated soluble gp85 and infection with RCASBP(A)-EGFP [3]: 9.5%

soluble recombinant ALV-A gp85 328_329insP (domain or fragment)
competitive blocking test: percent GFP-positive DF-1 cells after incubation with the concentrated soluble gp85 and infection with RCASBP(A)-EGFP [1]: 12.5%

soluble recombinant chimeric protein gp85 s8 (ALV-A gp85 with segment s8, residues 269-275, replaced by that of ALV-K) (domain or fragment)
competitive blocking test: percent GFP-positive DF-1 cells after incubation with the concentrated soluble gp85 and infection with RCASBP(A)-EGFP [4]: 11%

— PMC9400301
